# B1: Twister Ribozyme (parent)
# chain: AACACUGCCAAUGCCGGUCCCAAGCCCGGAUAAAAGUGGAGGGGGCGG
# Variants of: B1
# Assay: self-cleavage, relative activity (ratio to wild type); higher = more cleavage; co-transcriptional
row,Variant,self-cleavage
1,C26G G36U,0.0699
2,A10C C14A,1.05
3,A4C A23G,0.0448
4,G42U G48C,0.571
5,G24U A34C,0.101
6,C5U A22G,0.113
7,C14A C19U,1.07
8,C8A A34G,0.701
9,G17A G24U,0.0891
10,G16C C21A,0.0849
11,G7C G45A,0.0964
12,A1G C19U,0.345
13,C9U G28U,0.504
14,C27G C46U,0.105
15,A35C A40G,0.18
16,A23C C27U,0.0937
17,A1C G16U,0.189
18,C46U G48C,1.1
19,U18C A23C,0.506
20,C3U G13U,0.113
21,G44A G48C,1.11
22,U6G G29A,0.19
23,C9A G24C,0.119
24,G28U A35U,0.888

row,Variant,self-cleavage
1,G29A G39U,0.232
2,A10U G39U,0.215
3,U6C A22C,0.691
4,U37A G38C,0.551
5,C15G G45A,0.113
6,U12C A35G,0.837
7,A1U G47A,0.0626
8,C8A G45U,0.176
9,C8A G45C,0.141
10,C5U G39C,0.171
11,C20A A35C,0.191
12,U6A G39U,0.125
13,C5A U12G,0.42
14,G7U G16C,0.0533
15,A10C G45A,0.881
16,G13A A35G,0.203
17,A2G U31G,0.324
18,U6A G24A,0.116
19,A22G U31G,0.263
20,C20U G45U,0.802
21,C19A C27G,0.073
22,A1C G47C,0.199
23,A11U C15G,0.0907
24,C3G C20A,0.0892

row,Variant,self-cleavage
1,G28U A34U,0.585
2,C14G C27U,0.0942
3,C14G C27A,0.0743
4,C25U G39U,0.158
5,G13A G44C,0.746
6,C19U U37C,0.242
7,U6A G7U,0.101
8,G28C U31A,0.814
9,C5U C14A,0.673
10,C15A C20A,0.0707
11,A34U A40U,0.141
12,C3A U12G,0.159
13,C5U C25U,0.507
14,U18A G44A,0.631
15,C8U C27G,0.0565
16,C8U C27A,0.0891
17,A32G G38C,0.892
18,A2C G28A,0.0374
19,A2G C9U,0.0996
20,G38U G39C,0.14
21,U12A U37C,0.727
22,U6G G36A,0.0942
23,C14A C20G,0.126
24,C19U G43A,1.04

row,Variant,self-cleavage
1,C3G C21U,0.0445
2,G28U U37A,0.348
3,A11U C27A,0.66
4,A11U C27G,0.104
5,A30U C46G,0.931
6,A11G U31C,0.736
7,C3A A32C,0.188
8,U31G U37C,0.634
9,C25A A40U,0.0741
10,G13C G44U,0.254
11,C20U A40G,0.149
12,G28U A30C,0.968
13,C8A G44U,0.271
14,A23U G36U,0.0806
15,G7U A10G,0.237
16,G13U U31G,0.667
17,A10G C27A,0.682
18,U18A A34U,0.0942
19,A11U G48C,1.12
20,C20A A33G,0.116
21,C15G G47A,0.0633
22,G44U G47A,0.758
23,A2U C25U,0.169
24,G13A A22C,1.05

row,Variant,self-cleavage
1,A10U U37A,0.86
2,U31A A35G,0.803
3,C14G U31C,0.142
4,A2C G39U,0.0688
5,C5G A22C,0.571
6,C25G G43A,0.122
7,A4G C21A,0.0832
8,G7A C27U,0.11
9,G28A U37G,0.331
10,C8A U18A,0.111
11,C5A A32C,0.413
12,C14G G42C,0.095
13,A1C A23G,0.145
14,G38U A40U,0.116
15,A11G A33G,0.84
16,U12C G24A,0.0718
17,A4C A10U,0.203
18,C5G G17U,0.0612
19,U18A A33C,0.247
20,U31A A33U,0.935
21,A1C A30U,0.177
22,G24A U31G,0.105
23,A10U G44A,0.924
24,C14A U37A,0.711

row,Variant,self-cleavage
1,A40G,0.153
2,A4C G41U,0.0895
3,A33U A34G,0.76
4,C20A A23C,0.1
5,C26A A40G,0.182
6,C26G G47U,0.116
7,C5U U31C,0.804
8,C3G G43C,0.101
9,A1C C21A,0.154
10,G29A G36A,0.458
11,A11G A40G,0.11
12,A4C A32U,0.159
13,G7U A23G,0.0791
14,A35U G38A,0.925
15,A22G A23U,0.0557
16,A10C A11C,0.907
17,C8A C19G,0.0926
18,A23G C46A,0.328
19,C26U G28U,0.142
20,C3G G39A,0.0984
21,U18A C20A,0.0667
22,A23G A33C,0.187
23,A30C A33U,0.766
24,A10C G13A,0.764

row,Variant,self-cleavage
1,G13U A32U,0.489
2,A1G G44U,0.287
3,C14G A34G,0.182
4,C20U G43U,0.146
5,C14G C26A,0.0764
6,A11C C14G,0.164
7,U18A A35U,0.624
8,C26G U31G,0.348
9,A10C C21U,0.122
10,A32U G36C,0.435
11,A4U A35U,0.196
12,G28U G43U,0.285
13,A2C C21U,0.0368
14,C25G A40U,0.103
15,A4C U12A,0.193
16,A2G G41U,0.0697
17,A22U G29C,0.604
18,C21A A30G,0.0944
19,C9A C46G,0.59
20,A1U C25A,0.0664
21,G38A G44U,0.846
22,U31G A35U,1.01
23,A4U U6A,0.0622
